Assay results from IntAct's records for PubMed 19229292.

Legend:
dlg3_rat Dlg3 = dlg3_rat Dlg3 (UniProt Q62936)
dlg1_rat Dlg1 = dlg1_rat Dlg1 (UniProt Q62696)
dlg2_rat Dlg2 = dlg2_rat Dlg2 (UniProt Q63622)

Measured: effect of a mutation on the interaction

dlg3_rat Dlg3, sequence (Q62936 whole entry): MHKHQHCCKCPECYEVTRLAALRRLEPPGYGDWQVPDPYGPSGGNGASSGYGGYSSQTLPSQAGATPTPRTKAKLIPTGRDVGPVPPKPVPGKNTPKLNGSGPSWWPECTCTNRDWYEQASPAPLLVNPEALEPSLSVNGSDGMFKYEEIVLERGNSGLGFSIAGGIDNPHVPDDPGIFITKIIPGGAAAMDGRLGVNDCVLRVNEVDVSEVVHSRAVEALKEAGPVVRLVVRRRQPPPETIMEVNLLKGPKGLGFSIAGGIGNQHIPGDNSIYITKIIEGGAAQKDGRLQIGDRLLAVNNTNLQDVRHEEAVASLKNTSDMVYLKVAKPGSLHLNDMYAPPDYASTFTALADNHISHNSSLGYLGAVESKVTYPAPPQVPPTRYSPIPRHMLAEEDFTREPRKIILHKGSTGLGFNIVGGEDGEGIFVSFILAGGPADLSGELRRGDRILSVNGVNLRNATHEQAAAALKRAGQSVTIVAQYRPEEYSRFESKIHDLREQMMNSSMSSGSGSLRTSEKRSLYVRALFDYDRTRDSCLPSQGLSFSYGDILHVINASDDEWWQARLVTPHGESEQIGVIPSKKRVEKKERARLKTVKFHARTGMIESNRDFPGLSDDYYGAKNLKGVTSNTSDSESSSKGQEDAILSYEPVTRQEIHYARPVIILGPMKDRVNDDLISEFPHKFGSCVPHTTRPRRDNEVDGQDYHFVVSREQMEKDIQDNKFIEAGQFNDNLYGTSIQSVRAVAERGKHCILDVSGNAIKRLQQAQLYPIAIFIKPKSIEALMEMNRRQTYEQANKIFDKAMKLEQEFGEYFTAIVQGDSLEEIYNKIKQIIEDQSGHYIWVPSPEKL
dlg1_rat Dlg1, sequence (Q62696 whole entry): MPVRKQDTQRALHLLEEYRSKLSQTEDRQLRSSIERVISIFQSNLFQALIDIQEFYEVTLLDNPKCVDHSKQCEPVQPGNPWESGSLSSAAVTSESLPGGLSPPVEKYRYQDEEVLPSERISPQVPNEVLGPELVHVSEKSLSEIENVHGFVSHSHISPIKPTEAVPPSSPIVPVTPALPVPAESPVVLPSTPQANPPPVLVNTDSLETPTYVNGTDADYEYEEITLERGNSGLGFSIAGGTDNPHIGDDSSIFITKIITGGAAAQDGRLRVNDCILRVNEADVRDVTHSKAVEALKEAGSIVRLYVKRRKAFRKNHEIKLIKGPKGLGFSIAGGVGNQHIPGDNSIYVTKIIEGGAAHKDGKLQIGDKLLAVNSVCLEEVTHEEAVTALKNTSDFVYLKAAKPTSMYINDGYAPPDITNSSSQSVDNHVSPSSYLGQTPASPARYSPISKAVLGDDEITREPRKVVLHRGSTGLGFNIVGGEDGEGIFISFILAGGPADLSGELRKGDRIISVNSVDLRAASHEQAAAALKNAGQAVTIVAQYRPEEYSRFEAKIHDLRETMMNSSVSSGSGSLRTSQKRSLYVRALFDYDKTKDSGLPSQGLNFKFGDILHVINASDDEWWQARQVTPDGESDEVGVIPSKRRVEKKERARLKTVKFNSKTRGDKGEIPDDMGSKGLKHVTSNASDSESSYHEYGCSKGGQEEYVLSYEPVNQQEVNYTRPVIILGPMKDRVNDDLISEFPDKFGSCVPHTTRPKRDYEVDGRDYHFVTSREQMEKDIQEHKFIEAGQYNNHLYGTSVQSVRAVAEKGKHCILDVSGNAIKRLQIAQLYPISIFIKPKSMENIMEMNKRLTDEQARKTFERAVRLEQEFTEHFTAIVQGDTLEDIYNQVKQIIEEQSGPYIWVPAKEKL
dlg2_rat Dlg2, sequence (Q63622 whole entry, looked up): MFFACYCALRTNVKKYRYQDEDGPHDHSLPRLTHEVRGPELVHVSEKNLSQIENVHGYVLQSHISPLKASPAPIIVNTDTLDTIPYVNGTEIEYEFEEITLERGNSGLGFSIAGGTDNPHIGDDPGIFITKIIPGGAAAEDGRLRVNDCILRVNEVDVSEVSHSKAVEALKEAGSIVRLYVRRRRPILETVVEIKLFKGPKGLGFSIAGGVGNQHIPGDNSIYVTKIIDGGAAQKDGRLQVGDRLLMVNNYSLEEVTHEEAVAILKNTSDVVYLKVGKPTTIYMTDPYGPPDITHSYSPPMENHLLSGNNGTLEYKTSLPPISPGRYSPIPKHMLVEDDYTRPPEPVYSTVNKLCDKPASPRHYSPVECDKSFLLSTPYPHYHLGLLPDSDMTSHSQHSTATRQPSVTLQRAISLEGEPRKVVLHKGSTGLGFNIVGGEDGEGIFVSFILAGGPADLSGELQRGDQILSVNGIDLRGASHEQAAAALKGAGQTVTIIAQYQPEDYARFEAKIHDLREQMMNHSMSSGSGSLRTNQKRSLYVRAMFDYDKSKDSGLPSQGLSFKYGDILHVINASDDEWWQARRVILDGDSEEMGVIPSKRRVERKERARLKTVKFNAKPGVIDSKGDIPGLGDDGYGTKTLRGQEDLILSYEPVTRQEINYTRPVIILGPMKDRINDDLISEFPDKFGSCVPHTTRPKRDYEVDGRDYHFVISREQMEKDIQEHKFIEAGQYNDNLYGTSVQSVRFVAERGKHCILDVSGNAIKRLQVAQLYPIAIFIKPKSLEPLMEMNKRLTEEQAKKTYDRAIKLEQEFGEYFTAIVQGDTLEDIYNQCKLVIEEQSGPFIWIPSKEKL

Diacylglycerol kinase zeta (Rattus norvegicus (Rat)), O08560 V929A
disrupting interaction: all assays above
